{"source": "paper PMC7456326", "key": {"[1]": {"target": "Coh (lacking ELP linker and ddFLN4 domains), ITC construct (R. champanellensis)", "experiment": "ITC; 126 uM XMod-Doc injected (27 x 10 uL) into 16.1 uM Coh in the cell; 25 °C; TBS-Ca buffer (25 mM Tris, 72 mM NaCl, 1 mM CaCl2, pH 7.2)"}, "[2]": {"target": "Coh-ddFLN4-ELP-HIS-ybbr, AFM construct (R. champanellensis)", "experiment": "AFM single-molecule force spectroscopy (AFM-SMFS); Coh construct covalently on the cantilever tip by its C-terminal ybbR tag, XMod-Doc construct covalently on the cover glass by its N-terminal ybbR tag; 200 ms dwell; constant pulling speed 100, 400, 1600, 6400 nm/s (mutants at 400 nm/s); TBS-Ca buffer; k0 from Bell-Evans or Dudko-Hummer-Szabo fits"}, "[3]": {"target": "Coh-ddFLN4-ELP-HIS-ybbr, AFM construct (R. champanellensis)", "experiment": "AFM single-molecule force spectroscopy (AFM-SMFS); Coh construct covalently on the cantilever tip by its C-terminal ybbR tag, XMod-Doc construct covalently on the cover glass by its N-terminal ybbR tag; 200 ms dwell; constant pulling speed 100, 400, 1600, 6400 nm/s (mutants at 400 nm/s); TBS-Ca buffer; k0 from Bell-Evans or Dudko-Hummer-Szabo fits", "remark": "listed apart in the source"}, "[4]": {"target": "Avi-Coh (E154C)-HIS labelled with maleimide-Cy3b, smFRET construct (R. champanellensis)", "experiment": "FRET or BRET; single-molecule FRET in solution on a confocal microscope; labelled Coh (Cy3b) and XMod-Doc (AF647) mixed 1:1 at 1 uM, 1 min, diluted to 200 pM; 50 mM Tris pH 8, 100 mM NaCl, 1 mM CaCl2, Trolox, 1% glucose"}}, "note": "Like-named read-outs stand apart in the source and are kept apart here."}
{"substance": "XMod-Doc protein (lacking ELP linker and ddFLN4 domains), ITC construct (domain or fragment)", "values": [{"measurement": "Kd", "setting": "[1]", "value": 1, "unit": "nM"}, {"measurement": "stoichiometry N", "setting": "[1]", "value": 1}]}
{"substance": "ybbr-ELP-ddFLN4-XMod-Doc-HIS (wild type), AFM construct (domain or fragment)", "values": [{"measurement": "k0 (BE), pathway 1, high force rupture (XMod intact)", "setting": "[2]", "value": "4.7e-08", "unit": "s⁻¹"}, {"measurement": "k0 (BE), pathway 2, low force rupture after XMod unfold", "setting": "[2]", "value": 0.000743, "unit": "s⁻¹"}, {"measurement": "k0 (BE), pathway 3, low force rupture (XMod intact)", "setting": "[2]", "value": "2.79e-05", "unit": "s⁻¹"}, {"measurement": "k0 (DHS, υ = 0.5), pathway 1, high force rupture (XMod intact)", "setting": "[2]", "value": "9.39e-05", "unit": "s⁻¹"}, {"measurement": "k0 (DHS, υ = 0.5), pathway 2, low force rupture after XMod unfold", "setting": "[2]", "value": 0.0152, "unit": "s⁻¹"}, {"measurement": "k0 (DHS, υ = 0.5), pathway 3, low force rupture (XMod intact)", "setting": "[2]", "value": 0.831, "unit": "s⁻¹"}, {"measurement": "k0 (DHS, υ = 2/3), pathway 1, high force rupture (XMod intact)", "setting": "[2]", "value": 0.000157, "unit": "s⁻¹"}, {"measurement": "k0 (DHS, υ = 2/3), pathway 2, low force rupture after XMod unfold", "setting": "[2]", "value": 0.101, "unit": "s⁻¹"}, {"measurement": "k0 (DHS, υ = 2/3), pathway 3, low force rupture (XMod intact)", "setting": "[2]", "value": 1.08, "unit": "s⁻¹"}, {"measurement": "percentage of curves in pathway 3 (binding mode B), 400 nm/s", "setting": "[2]", "value": 19, "unit": "%"}, {"measurement": "percentage of curves in pathway 3 (binding mode B), all pulling speeds", "setting": "[2]", "value": "17 to 22", "unit": "%"}, {"measurement": "rupture force, pathway 1 (XMod intact)", "setting": "[2]", "value": 500, "unit": "pN"}, {"measurement": "rupture force, pathway 2 (after XMod unfolding)", "setting": "[2]", "value": 200, "unit": "pN"}, {"measurement": "rupture force, pathway 3 (XMod intact)", "setting": "[2]", "value": 200, "unit": "pN"}, {"measurement": "rupture force, pathway 1 (XMod intact)", "setting": "[3]", "value": "500 to 600", "unit": "pN"}]}
{"substance": "ybbr-XMod-Doc (WT, S199AzF)-HIS labelled with DBCO-AF647, smFRET construct (domain or fragment)", "values": [{"measurement": "mean FRET efficiency, binding mode A", "setting": "[4]", "value": 0.71}, {"measurement": "mean FRET efficiency, binding mode B", "setting": "[4]", "value": 0.34}]}
